In publication PMC11090050:

Target: MBP-Rubicon RH (Rubicon Homology domain of Rubicon, wild type) (UniProt Q92622)
Assay: ITC; MBP-Rubicon RH (80 µM) in the chamber, RAB7A (800 µM) in the syringe; 13 injections at 25°C; 50 mM HEPES 7.5, 150 mM NaCl, 2 mM MgCl2, 10 mM TCEP; simple single-binding-site fit

Sequence of UniProt Q92622 (Q92622 699-949): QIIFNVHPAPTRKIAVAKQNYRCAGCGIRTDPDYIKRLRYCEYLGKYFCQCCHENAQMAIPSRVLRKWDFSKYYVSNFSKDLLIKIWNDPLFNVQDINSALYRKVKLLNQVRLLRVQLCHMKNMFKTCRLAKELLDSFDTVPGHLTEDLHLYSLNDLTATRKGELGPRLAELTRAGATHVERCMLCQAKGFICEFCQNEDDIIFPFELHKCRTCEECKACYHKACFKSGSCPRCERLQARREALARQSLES

How did the Kd turn out when “RAB7A (recombinantly purified, unlabelled, as used for ITC) (from UniProt P51149 2-182) (natural protein)” was run?
Its Kd is 1.7 µM.

And the stoichiometry N?
The stoichiometry N was 0.7.
